Source: patent publication US6045793

Biological target: [Met-(-1)]rOncG20 (Rana pipiens)

In the case of “Placental ribonuclease inhibitor (from UniProt P13489)”, the Fold Difference of IC50 (ng/ml) in rabbit reticulocyte lysate, (+)PRI against (-)PRI was 0.9 fold and the IC50 (ng/ml) of the RNase for inhibition of protein synthesis in rabbit reticulocyte lysate, (+)PRI was 24 ng/mL.
